One data set relates to T1, CC(=O)C(=O)O.
T1 construct: full-length, codon-optimised, pET-28a(+) NdeI/XhoI, N- and C-terminal 6xHis tags, E. coli BL21 (DE3), Ni-NTA purified
Put plainly: purified protein. To be noted: reductive amination, 0.5 mM NADH, 0.5 M NH4Cl, pH 10.5, 25 °C. It counts as biochemical, Candidatus Bathyarchaeota archaeon.

The test system of the next data set is T2, CCC(=O)C(=O)O.
T2 construct: full-length, codon-optimised, pET-28a(+) NdeI/XhoI, N- and C-terminal 6xHis tags, E. coli BL21 (DE3), Ni-NTA purified
Put plainly: purified protein. To be noted: reductive amination, 0.5 mM NADH, 0.5 M NH4Cl, pH 10.5, 25 °C. It counts as biochemical, Candidatus Bathyarchaeota archaeon.

Another data set concerns T3, CCCC(=O)C(=O)O.
T3 construct: full-length, codon-optimised, pET-28a(+) NdeI/XhoI, N- and C-terminal 6xHis tags, E. coli BL21 (DE3), Ni-NTA purified
Description: purified protein. To be noted: reductive amination, 0.5 mM NADH, 0.5 M NH4Cl, pH 10.5, 25 °C. The format is biochemical, Candidatus Bathyarchaeota archaeon.

Another data set concerns the target T4, AfAlaDH (Archaeoglobus fulgidus, UniProt O28608).
T4 construct: gene ala; full-length, codon-optimised, pET-28a(+) NdeI/XhoI, N- and C-terminal 6xHis tags, E. coli BL21 (DE3), Ni-NTA purified
T4 sequence (O28608 1-322): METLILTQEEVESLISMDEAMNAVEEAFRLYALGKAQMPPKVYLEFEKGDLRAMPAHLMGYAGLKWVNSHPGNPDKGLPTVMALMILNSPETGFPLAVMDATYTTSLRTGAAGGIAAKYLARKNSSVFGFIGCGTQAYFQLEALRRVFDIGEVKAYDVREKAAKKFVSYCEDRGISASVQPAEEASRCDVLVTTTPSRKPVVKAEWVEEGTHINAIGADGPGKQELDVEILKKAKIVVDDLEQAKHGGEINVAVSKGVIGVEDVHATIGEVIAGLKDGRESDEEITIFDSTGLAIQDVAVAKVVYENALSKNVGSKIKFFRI
Description: NADH consumption at […] nm, Michaelis-Menten fit. To be noted: reductive amination; 0.5 mM NADH, 0.5 M NH4Cl, pH 9.5, 25 °C; read-out: Pyruvate / KM. The format is biochemical.

Substrate in data set [1]: CC(=O)C(=O)O
Put plainly: purified protein. The format is biochemical, Thermus thermophilus. To be noted: reductive amination, 0.5 mM NADH, 0.5 M NH4Cl, pH 8.5, 25 °C.

Substrate in data set [2]: CCCC(=O)C(=O)O
Description: purified protein. It counts as biochemical, Thermus thermophilus. To be noted: reductive amination, 0.5 mM NADH, 0.5 M NH4Cl, pH 8.5, 25 °C.

Substrate in data set [3]: CCC(=O)C(=O)O
Description: purified protein. To be noted: reductive amination, 0.5 mM NADH, 0.5 M NH4Cl, pH 8.5, 25 °C. The format is biochemical, Thermus thermophilus.

Substrate in data set [4]: CCCCC(=O)C(=O)O
Put plainly: purified protein. The format is biochemical, Thermus thermophilus. To be noted: reductive amination, 0.5 mM NADH, 0.5 M NH4Cl, pH 8.5, 25 °C.

Substrate in data set [5]: CC(=O)C(=O)O
Put plainly: purified protein. The format is biochemical, Melghiribacillus thermohalophilus. To be noted: reductive amination, 0.5 mM NADH, 0.5 M NH4Cl, pH 9.5, 25 °C.

Substrate in data set [6]: CCCC(=O)C(=O)O
Description: purified protein. The format is biochemical, Melghiribacillus thermohalophilus. To be noted: reductive amination, 0.5 mM NADH, 0.5 M NH4Cl, pH 9.5, 25 °C.

Substrate in data set [7]: CCC(=O)C(=O)O
Put plainly: purified protein. To be noted: reductive amination, 0.5 mM NADH, 0.5 M NH4Cl, pH 9.5, 25 °C. The format is biochemical, Melghiribacillus thermohalophilus.

Substrate in data set [8]: CC(=O)C(=O)O
Put plainly: purified protein. To be noted: reductive amination, 0.5 mM NADH, 0.5 M NH4Cl, pH 10.5, 25 °C. The format is biochemical, Ammoniphilus sp. CFH 90114.

Substrate in data set [9]: CCCC(=O)C(=O)O
Description: purified protein. It counts as biochemical, Ammoniphilus sp. CFH 90114. To be noted: reductive amination, 0.5 mM NADH, 0.5 M NH4Cl, pH 10.5, 25 °C.

Substrate in data set [10]: CCC(=O)C(=O)O
Description: purified protein. The format is biochemical, Ammoniphilus sp. CFH 90114. To be noted: reductive amination, 0.5 mM NADH, 0.5 M NH4Cl, pH 10.5, 25 °C.

Substrate in data set [11]: CCCC(=O)C(=O)O
Description: purified protein. To be noted: reductive amination, 0.5 mM NADH, 0.5 M NH4Cl, pH 9.5, 25 °C. It counts as biochemical, Archaeoglobus fulgidus.

Substrate in data set [12]: CCC(=O)C(=O)O
Description: purified protein. The format is biochemical, Archaeoglobus fulgidus. To be noted: reductive amination, 0.5 mM NADH, 0.5 M NH4Cl, pH 9.5, 25 °C.

The results in this text go back to publication PMC10923667, “Cloning and expression heterologous alanine dehydrogenase genes: Investigation of reductive amination potential of L-alanine dehydrogenases for green synthesis of alanine derivatives” (Heliyon, 2024).

Turning to “CbAlaDH (Candidatus Bathyarchaeota archaeon)”, the Km stood at 400 ± 0 µM in the data set on CC(=O)C(=O)O, 2200 ± 1000 µM with CCC(=O)C(=O)O and 800 ± 0 µM with CCCC(=O)C(=O)O. For the same molecule, the values for the kcat in the data set with CC(=O)C(=O)O, in the data set on CCC(=O)C(=O)O and with CCCC(=O)C(=O)O were 0.5 ± 0.1 s⁻¹, 0.7 ± 0.2 s⁻¹ and 0.17 ± 0.1 s⁻¹, respectively. In addition, the kcat/Km in the data set on CC(=O)C(=O)O is 1300 ± 100 M⁻¹ s⁻¹; in the data set on CCC(=O)C(=O)O, 300 ± 200 M⁻¹ s⁻¹; in the data set on CCCC(=O)C(=O)O, 210 ± 100 M⁻¹ s⁻¹.
On to `CC(=O)C(=O)O` [pyruvate], for which, at AfAlaDH, the Km was 200 ± 100 µM.

B1: TtAlaDH (Thermus thermophilus HB8) (protein)
chain: MVIGVPKEIKTLENRVALTPGGVESLVRRGHTVLVERGAGEGSGLSDAEYARAGAELVGREEAWGAEMVVKVKEPLPEEYGFLREGLILFTYLHLAADRGLTEAMLRSGVTGIAYETVQLPDGTLPLLVPMSEVAGRMAPQVGAQFLEKPKGGRGVLLGGVPGVAPASVVILGGGTVGTNAAKIALGMGAQVTILDVNHKRLQYLDDVFGGRVITLTATEANIKKSVQHADLLIGAVLVPGAKAPKLVTRDMLSLMKEGAVIVDVAVDQGGCVETIRPTTHAEPTYVVDGVVHYGVANMPGAVPRTSTFALTNQTLPYVLKLAEKGLDALLEDAALLKGLNTHKGRLTHPGVAEAFGLPYTPPEEALRG
notes: full-length, codon-optimised, pET-28a(+) NdeI/XhoI, N- and C-terminal 6xHis tags, E. coli BL21 (DE3), Ni-NTA purified
Turning to B1, the Km worked out at 630 ± 200 µM in the data set “purified protein [1]”, 3300 ± 1100 µM in the data set “purified protein [2]”, 400 ± 100 µM in “purified protein [3]” and 400 µM in the data set “purified protein [4]”. Also, the turnover number (kcat) was found to be 87 ± 5.1 s⁻¹ in the data set “purified protein [1]”, 1.2 s⁻¹ in “purified protein [2]” and 1.1 s⁻¹ in “purified protein [3]”. In addition, the kcat/Km in the data set “purified protein [1]” came out at 138000 ± 15700 M⁻¹ s⁻¹; in the data set “purified protein [2]” it was 400 M⁻¹ s⁻¹; in the data set “purified protein [3]”, 3000 ± 700 M⁻¹ s⁻¹.

B2: MetAlaDH (Melghiribacillus thermohalophilus) (protein)
chain: MKIGVPKEIKNNENRVALTPAGVMTLKKAGHEVFIETGAGLGSGFTDEQYTEAGAQIVTTAKEAWSQEMVMKVKEPLPEEYDYFYEGLILFTYLHLAAEPELTKALIEKKVVGIAYETVQLDNGSLPLLTPMSEVAGRMATQIGAQFLEKPHGGKGILLGGIPGVRRGKVTIIGGGVVGTNAAKIAVGLGADVTIVDLNPDRLRELDDIFGSSINTLMSNSLNIAEAVKESDLVIGAVLIPGAKAPKLVTEDMVKEMKKGSVIVDVAIDQGGIVETSDRITTHDNPTYEKHGVVHYAVANMPGAVPRTSTIGLTNVTVPYAVQLANKGYKQACLDHAALKKGINTLNGYVTYQAVAEAHGLEYENVDLLLK
notes: as for B1
On to B2, for which, in the data set “purified protein [5]”, the Km came to 1300 ± 400 µM, the kcat came out at 140 ± 19.7 s⁻¹ and the kcat/Km turned out to be 108000 ± 12000 M⁻¹ s⁻¹. Besides, in “purified protein [6]”, the Km was 1900 ± 0 µM, the kcat turned out to be 0.7 s⁻¹ and the specificity constant (kcat/Km) came out at 400 M⁻¹ s⁻¹. In the data set “purified protein [7]”, the Km is 3800 ± 1200 µM, the catalytic constant (kcat) is 3.3 s⁻¹ and the catalytic efficiency (kcat/Km) was 800 M⁻¹ s⁻¹.

B3: AcfhAlaDH (Ammoniphilus sp. CFH 90114) (protein)
chain: MIIGVPKEIKNNENRVGLTPAGVTAFKNNGHDVWVETNAGMGSGFTDEDYTAAGAKIVDSASVVWSAEMVVKVKEPLPEEYTYFREGLILYTYLHLAPEPELTKALVEKKVIAIAYETIQADNGSLPLLTPMSEVAGRMSIQIGAQFLEKSKGGKGVLLGGVPGVAPGEVVIVGGGIVGTNAAKMALGLGASVTLLDISADRLRQLDDMFQGRLKTLMSNSYNIAEAVKKADLVVGAVLIPGARAPRLVTEEMVKTMQPGSVIVDVAIDQGGSIETIDRITTHDNPTYVKHGVLHYAVANMPGAVARTSTIALTNVTVPYGVQIANKGWKQAALDNKALAKGINVVDGKVTYKAVAEAHGYTPVAVETVLTGQNVGV
notes: as for B1
In the case of B3, in the data set “purified protein [8]”, the Km stood at 700 ± 200 µM, the kcat turned out to be 112 ± 6.6 s⁻¹ and the specificity constant (kcat/Km) came to 148000 ± 13500 M⁻¹ s⁻¹. Besides, in the data set “purified protein [9]”, the Km turned out to be 5200 ± 800 µM, the kcat was 1 s⁻¹ and the kcat/Km was 200 M⁻¹ s⁻¹. For the same molecule, in the data set “purified protein [10]”, the Km was determined as 1300 ± 400 µM, the kcat came out at 5.4 ± 0.5 s⁻¹ and the specificity constant (kcat/Km) stood at 4000 ± 1400 M⁻¹ s⁻¹.

B4: AfAlaDH (Archaeoglobus fulgidus DSM 4304) (protein)
chain: T4 sequence (O28608 1-322)
notes: as for B1
On to B4, for which, in “purified protein [11]”, the Km was 300 ± 0 µM, the turnover number (kcat) came out at 0.9 ± 0.2 s⁻¹ and the specificity constant (kcat/Km) is 2700 ± 300 M⁻¹ s⁻¹. For the same molecule, in “purified protein [12]”, the Km turned out to be 200 ± 0 µM, the kcat is 7.5 ± 0.1 s⁻¹ and the kcat/Km turned out to be 34000 ± 100 M⁻¹ s⁻¹.
